The text below walks through data of patent publication US6890738.

The assay has as its target prolactin receptor on Nb2 T lymphoma cells (rat) (UniProt P05710). In words: cell-based or functional assay.
UniProt P05710, sequence (P05710 20-610): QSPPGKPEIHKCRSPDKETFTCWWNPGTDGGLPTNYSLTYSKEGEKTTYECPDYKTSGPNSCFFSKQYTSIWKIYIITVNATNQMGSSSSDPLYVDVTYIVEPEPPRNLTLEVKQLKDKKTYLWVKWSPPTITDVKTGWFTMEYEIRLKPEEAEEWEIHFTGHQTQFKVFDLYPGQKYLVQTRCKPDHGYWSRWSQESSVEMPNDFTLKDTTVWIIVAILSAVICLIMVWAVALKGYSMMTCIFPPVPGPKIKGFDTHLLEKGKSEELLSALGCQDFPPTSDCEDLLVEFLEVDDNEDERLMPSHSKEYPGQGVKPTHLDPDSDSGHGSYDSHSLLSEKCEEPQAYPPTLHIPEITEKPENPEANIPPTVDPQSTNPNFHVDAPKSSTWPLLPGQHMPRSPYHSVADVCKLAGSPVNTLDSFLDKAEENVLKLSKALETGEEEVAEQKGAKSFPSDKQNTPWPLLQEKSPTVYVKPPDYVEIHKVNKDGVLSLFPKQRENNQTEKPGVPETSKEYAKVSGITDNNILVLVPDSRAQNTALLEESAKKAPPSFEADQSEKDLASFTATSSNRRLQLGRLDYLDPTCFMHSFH

Turning to “human prolactin aspartate mutant (serine 179 substituted with aspartate) (from UniProt P01236 29-227) (ligand)”, the inhibition of the Nb2 cell growth response to 400 pg/ml wild-type PRL by 200 pg/ml aspartate mutant (MTS assay) turned out to be 75%.

In turn, “human prolactin glutamate mutant (serine 179 substituted with glutamate) (from UniProt P01236 29-227) (ligand)” showed a reduction of the Nb2 cell growth response to 800 pg/ml wild-type PRL by 200 pg/ml glutamate mutant (MTS assay) (fraction of growth response) of 0.5.
